Consider 1 substance from article doi:10.1101/2023.01.11.523539.

Common to all, as to test: two-hybrid
In assay [1] the target is BD-MLA13^D2A_E17A (α1-helix mutant of MLA13 fused N-terminally to the LexA binding domain) (barley).
The target of assay [2] is BD-MLA13 (wild-type MLA13 fused N-terminally to the LexA binding domain) (barley).
The target of assay [3] is BD-MLA13^F99E (CC domain mutant of MLA13 fused N-terminally to the LexA binding domain) (barley).

In the case of “AD-AVRA13-V2 (AVRA13-V2 lacking signal peptide, fused N-terminally to the B42 activation domain and 1xHA) (natural protein)”, the lowest dilution of yeast with growth without leucine is 0.01 OD600 in assay [1], 0.001 OD600 in assay [2] and 0.01 OD600 in assay [3].
